# Experiment: soluble on expression in E. coli; label from the status in PepcDB or PDB records
row,Sequence,soluble on expression in E. coli
1,MGSDKIHHHHHHMKFSEPLVEGRLIRRYKRFLADVQLPDGTEVTAHCPNTGSMLGCQPENARVWLSRSDNPKRKLQYTWELVETEPGVLACVNTVRPNAQARAAIEAGVVQSLAGYAQCRAEVRYGSEKSRIDLLLSGHDHDPDAWVEVKNVTLAEGGEGYFPDAVTERGQKHLRELMAQVQNGDRAVLFFVVNHTGIEQVRPADHIDARYGQLLREACEAGVEVIAYRAALAGEDGDPSGRLELVEEVPVSLEP,not soluble
2,MGSDKIHHHHHHMKGIISLIHGGKTFVDQIHSACQDAGIELYVISSNTVDADLLQNMSDKATVLEVIEGTDLNFESVLSFVEKLQQSNKQALACISVWENYRPLMARLNQALGAQDMCPEQVNLLRDKHLLRKVLYDAGLSQVNSRILTQEVFIQIQKNRELAFVKPRQGIASYGAFKLRPSTQWQQITEIAEQIQSDAVFSSSFADEVEFVAEDYISGVEFCFEIIHHDGQCNLIAIHEKLEVGEQNLTTLENVSASPPISLNRKQIEQANLWVSSIFERLELGSGCYHLEAKFDNNQWEVIEINPRIGGSYINESVAHVAGYSLLELWIRSLLRAGCSEYQAFLKVLSPHSEQFFERQQGSYFRVFFAEPNRTISRLNFKLGTPPIHKKLLMKEGQTTPNASRELFMAQALWSWSVSQDSVQTRAQISESLTALEVEYE,not soluble
3,MGSDKIHHHHHHMKHMNNSVDQQIALFGQSGSGKTALLCSFYGAARDSTQSEGQLFELSAKDDRHTKLMKMYLGMKEDSLAPPQNRFESHKTVFSLKQKNIPIKDAAKSDQVNLTWHDYPGEWFEGGAVTDSEKQDKVETFRNLLGSDVALFLVDGQKLHDYANEEERYLSYLFDGFIENLNQIKDAILEGGKQLQQFPRIWVIALSKADLWPDLQVKDFENLLNKKAGNEIIALRSKLLEFIDNDEAFSFGKDFLLLSSAKFTPGHIDISQRKGVDVLLPLACVLPMQRHLWWQELKVLPINLADILLGNEIAQMGFKIVSKVLKNKVSGTNNKAMAALVFAELVRDMVDQPTELLQKAREEAVGRREFLKAITAEFTRKLNQAEADQVLVRDFA,not soluble
4,MGSDKIHHHHHHMKHSDYSLIPTFVAIVEEKSYTKAAKRLGISQSAVSQGVTRLQAVFKDTLFIRGSRGVEPTQFSLDIYPTLASSVENIAFMMPEYKKFSAVKCEKQFVISSLSVFGFTILPPLSALMSQHAPLASVKIEPLNNHDFTNMLRSQHFDLVIDAHSNQYPQLRSKVIMEDTLCVMCRIDHPRLSGDSISIDEFLAEKHVTHSQLDQKGGYLSGKGLKEDEILNQRKIAWQAASIMEMLPVIECCDYIALLPQRLVDKYRHIYQLKQLHSNFLLDPIKVAMYWHSSRTNDPSHKWLREQIVKVTQQFNKL,not soluble
5,MGSDKIHHHHHHMKIAIITFFDNGNYGSELQTLAMNDYLNAKGHVTVFCKVKSSNKIIRAIELLYDKVLLKWYKITDKEKRQYLTDRAKNLSSQRNIPPKLRQYIHSFVNSHISFGCISRLLLFRKERFDAYICGSDQIWSALKMPLLPLNFLYGIDKKKKIAYAPSIGLDNPPYYYIREVEKYVKDFIYLSVREEDAKNVLKKQYGIEAMQVLDPTLLQGKGFWDSLLAIESKQVPTKPYVFCYFLGKLNEDIVTCINRIANGKCVMVLPYEEDCDLIKNGKYELADPLDFVNLIKHADYVLTDSFHGSIFSILYDKQFVVTKRTHVRRVSQTSRITSLLKIFNLQSQYCSGVDEIINALQNNIDYSFTHIQLEEEQRKSRLFLDGALNEIEKNIKS,not soluble
6,MGSDKIHHHHHHMKIAILTTNQAADDSRLVATARKKGHSANLLDLRQMSIALRPSVADIYYQNELITHHFDAIIPRLNVSYTDYGINLLQQFICSNTYVSESPEALRLGRDKLKCLQHLLSKGLPFPTTAIAYTPDFFNAIMQQLQLPLVVKLIESTEGTGVFLARTHKEVDNLCKTFSLAGVSYLIQEFIAEAAGHDVRAFVVGNRVVAAMQRDSQDDDFRANVSLGAHSSAVTLSADEQELVLKATQSIGVHVAGVDFVRSNRGPLLLEINVSPDFTGEQGIEAITLRDVAADIIDYTVQHAEAFYQGRSKY,not soluble
7,MGSDKIHHHHHHMKIALIQPKMNKRPMDTDLKTRMSPPLSLLTLMGLTPEGHEVIMVNENVEKIDYACGAELVGITITLDVMPRAVEIAEEFHRLGIPVVAGGIHVTSSPDECRGYFDAICIGAAERVWERMIEDAEESRLQQVYHDMTDFRGEEIASPAYHRIDKNRYLYTNIMTTSRGCPNRCGFCYNSCRNRMYIRRPVTDVLRDIEGLGTRHILFIDDNFIGVPAYTRELLNHLRGRELKWSAAVTTKIADYPDVLDLMAETGCQSLFIGFESINNSSLHGVNKDNQFEKYERIVTAIHSRGIMINASMVFGLDGDEPDVFQRTLDWLVKNKIETLTSHILTPYPGTELHGRMKEEGRILDHELSRYNTAHVVFQPKGMTAEELYKGYLWIYREFYSFPNIWRRRPEHKAQRKSFFLFNILYRKFGGLTSVLARIIPMRTVGRLAARISYRVK,not soluble
8,MGSDKIHHHHHHMKIAVVGLGNIGFNLFSYINKKYPNSVVGVDIDAGRVNDLRSQGYRVTTDYRALTGIDIWLLAPSTGDQGENLFAALGEMIICPGALISIESTLPPGTMELVRKYLEGKGYRCGQDVYLIHVPHRVMFGVDETVCDTPRVMGAFTQACRDKGRQFYEPLVPQLVEVEDVRIAELSKVVENVKRYVDVAFAQELYQYCKDQGMDFAELRKAVNSKSNVELLGTDWGIGGECLPKDMRFLRKVCPSPLLEGAAIADQEYRDRILQQVGTHQNVLIKGLSYKAGVKDLKHSRGVDLVRALEEAGNTVWVVDPLFTPEELEAAGFKTVEKFDEADLQGWIVLEREKALK,not soluble
9,MGSDKIHHHHHHMKIDRSVIRSLALFAKMADDELDGLLTHATSRLVPPGEAIFEQGQSAAHFFLLIHGRLKVTQVTHDGQQIIVRMVHPGDLFGFARALQRSDYPGTATTAAESVILSWQTDLWPQFVEQNPHLAVSAMQTIGQRLEEAHTRIREMSTQEVERRVAHAVLRLSQQAGRKELDGIRIDFPISRQDIAEMTGTTLHTVSRILSSWESKGLVQGGRQKLLVCNLPGLAQLAEGETSQV,not soluble
10,MGSDKIHHHHHHMKIGTYQRLKAIKFLDFGVYLLEELTQEEVLLPKRYVPEGLEMGAMLEVFLYTDSEDRPVATTLKPKAILGEVAALEVVSVSERGCYLDLGIAKDIFMPCKNPYSFHEGQKVVVRLDLDKEKRLIARIGVKNYLQNAPVTLRPFTEVEILPFEWSTLGYGCMVNGRYFGMLFNNETFEKLPLGEARKGYIKAVRPDGKIDLSLRKSQGAGGLKEELEKLMKALQSAGGKLELHYDSDPDEISKITGLSKKGFKRALGEAIRSQKVELVAGKGIEQIR,not soluble
11,MGSDKIHHHHHHMKILLYLEAEQFLSHSGIGRAMKHQQRALDLMGIDWTKNPEDDYDILHLNTYGFSSWKMLKKAKKAGKKVIFHGHSTKEDFQNSFIGSNIAAPFFKQYLMHFYRAADLVITPTDYSASLLRSYGIKCPILPISNGIDLTKYSRSEAKEQAFREYFSLKSDQKVVVTAALYFKRKGIDDFIKVAERMPDVTFIWFGYQNLWTIPGWIRRIVKKNHPKNVLFPGYIKGDIFEGAMSSADAFFFPSREETEGIVVLEALASHQKTVVRDIPVYHGWLDSTCVSMATDVEGFVNQLQDVLDGKVDKTKEAYQVAESRTIEKVAQQLADAYQQTLEL,not soluble
12,MGSDKIHHHHHHMKINRLTEIIVILLNKKLVTAKELADRFEVSTRTIYRDIETLSMSGVPVYMTKGKGGGISLIEEYSIDKAILSKKDKESLIVALKTLQATKYPEINSVVNKIGSIFGEQNFSNWIEIDFTEWGSNFNEDDKFTKIKEAILRRNTINFNYVNSLSSQTNRTVEPLKLMYKSKTWYLYGFCKLKDDFRIFRISRIRNLSIKDEVFSRKIIEEVCLNDSKVIKENTITLKLRFKEKMLFRVFDDFNKDLITKNEDDTYDVITEFPIGEWIYGYILSFGDNVEVLEPKDVRDNVITRLRELSKIYSL,not soluble
13,MGSDKIHHHHHHMKISNISYFNFRNLENTSIDLSDKINVFYGKNAQGKTSLLEAIYYSSTGISFKTKKTSEMIKYNFDEFISSISYQDYIANNKISVRFKNIAGAKKEFFFNKKRISQTDFYGKINIIAYIPEDIILINGSPKHRRDFFDIEISQIDKEYLTNLKNYDKLLKIRNKYLKENKRNSEEFAIYEKEFIKYASYIIFTRIEYVKSLSIILNLQYRKLFNIAQELNLRYETSLDKTAKVTIEMIQESLKREISQKKYQEDKYKFSLVGPHKDDYKFLLNGHEAKISASQGEKKSIIFSLKLSEIEIIKKNRKENPVVIIDDITSYFDEDRRKSILDFFNKRDIQVLISSTDKLDIEAKNFYVEKGIIKDESNINK,not soluble
14,MGSDKIHHHHHHMKISVSKNDLENALRYLQAFLDKKDASSIASHIHLEVIKEKLFLKASDSDIGLKSYIFTQSSDKEGVGTINGKKFLDIISCLKDSNIILETKDDSLAIKQNKSSFKLPMFDADEFPEFPVIDPKVSIEVNAPFLVDAFKKIAPVIEQTSHKRELAGILMQFDQKHQTLSVVGTDTKRLSYTQLEKISIHSTEEDISCILPKRALLEILKLFYENFSFKSDGMLAVIENEMHTFFTKLIDGNYPDYQKILPKEYISSFTLGKEEFKESIKLCSSLSSTIKLTLEKNNALFESLDSEHSETAKTSVEIEKGLDIEKAFHLGVNAKFFLEALNALGTTQFVLRCNEPSSPFLIQESLDEKQSHLNAKISTLMMPITL,not soluble
15,MGSDKIHHHHHHMKKAIGILCYPSVGGSGVVATELGMKLADRGHDVHFITSSIPFRLTEYRPNITVHLVEVNQYSVFKYPPYDITLASKVAEVIDLFDLDIIHAHYAVPHAVCAELGRNMAKKKGVGVVTTLHGTDITVIGQDLEMQPAIRYGIESSDAVTAVSESLALETNITLNGQYAIEVIPNSIDESMYYPMRDERLKRHYGIEPDEIVVIHISNFRPVKRIDDTIAAFAIASKDRAMRLLLVGDGPEMGQTRRRAKELGIYDKIIFAGKQEHVAQLLAISDIHLLLSEKEAFGLVVLEAMAVGVPSVVSSAGGLPEVIQDGKTGFIVPTYDVKTAADRIGKLADDAALREELAEEGIRDTRRRFDSNQVVRAYELLYERVCAQYENA,not soluble
16,MGSDKIHHHHHHMKKLLNTLYVTSENSYLGLDGENVVVYDDKNEIGRLPLHNLEAIISFGYRGTSPALMGACADRNISLCYLTPQGKFLARVSGKVKGNVVLRKQQFQSSSEDIKCLEIAKNCILGKVYNSRWVLERAIRDHSMQIDVDKVKKASIKLKEFLDYIQNSQSMNQLRGYEGEAASIYFGVFDELILQQKKDFFFQGRNRRPPLDNVNAMLSFTYTLLTTQITSALEVVGLDPYVGYMHTERPGRVSLSLDLIEELRAVMADRFVLSLINKKIVNGKSFTKKENGAVLMDTDIRKKLLSEWQNKKKEIITHPYLNEKVEWGMVPFVQAMLLARYLRGDLDEYPVFLWK,not soluble
17,MGSDKIHHHHHHMKKRFIYHDEKSNKFWWIDYEGDSLAVNYGKVGSIGKFQTKEFDNEEQCLKEASKLIAAKMKKGYQEDPKFNFMDRYYFDDEEIGLHVKTSHPNFQCHFTDPLYMCCWDEESPFGSDEGADALNVLENSLRKEPDLDCADFPQMLIETMWGMKYIAMDSILEEDVRAQLLVDEMSTIQSNMITYATAFGQIKVMGKISHKLKKMGLNALARHQLTAKILQWGDGQDSPILQKMIDDLTAFPHEN,not soluble
